{
  "source": "patent US20230242658A1",
  "about": "(published 2023)",
  "binders": {"B1": {"name": "PR000265 (antibody, V domains shown)", "VH": "EVQLVESGGGLVQPGGSLRLSCAASGFTFSSYWMSWVRQAPGKGLEWVANIKQEGSEKYYVDSVKGRFTISRDNAKNSLYLQMNSLRAEDTAVYYCARDRAVAGAFDIWGQGTMVTVSS", "VL": "DIQMTQSPSTLSASVGDRVTVTCRASQSIYIWLAWYQQKPGKAPNLLIYKASSLETGVPSRFSGSGSGTEFTLTISSLQPDDFATYYCQQYYGSSRTFGQGTKVEIKR"}, "B2": {"name": "Urelumab (antibody, V domains shown)", "VH": "QVQLQQWGAGLLKPSETLSLTCAVYGGSFSGYYWSWIRQSPEKGLEWIGEINHGGYVTYNPSLESRVTISVDTSKNQFSLKLSSVTAADTAVYYCARDYGPGNYDWYFDLWGRGTLVTVSS", "VL": "EIVLTQSPATLSLSPGERATLSCRASQSVSSYLAWYQQKPGQAPRLLIYDASNRATGIPARFSGSGSGTDFTLTISSLEPEDFAVYYCQQRSNWPPALTFGGGTKVEIKR"}, "B3": {"name": "Utomilumab (antibody, V domains shown)", "VH": "EVQLVQSGAEVKKPGESLRISCKGSGYSFSTYWISWVRQMPGKGLEWMGKIYPGDSYTNYSPSFQGQVTISADKSISTAYLQWSSLKASDTAMYYCARGYGIFDYWGQGTLVTVSS", "VL": "SYELTQPPSVSVSPGQTASITCSGDNIGDQYAHWYQQKPGQSPVLVIYQDKNRPSGIPERFSGSNSGNTATLTISGTQAMDEADYYCATYTGFGSLAVFGGGTKLTVLG"}},
  "key": {"[1]": {"biological_target": "T1, human PD-L1 on CHO-K1 cells (human, UniProt Q9NZQ7 19-290)", "T1 sequence (Q9NZQ7 19-290)": "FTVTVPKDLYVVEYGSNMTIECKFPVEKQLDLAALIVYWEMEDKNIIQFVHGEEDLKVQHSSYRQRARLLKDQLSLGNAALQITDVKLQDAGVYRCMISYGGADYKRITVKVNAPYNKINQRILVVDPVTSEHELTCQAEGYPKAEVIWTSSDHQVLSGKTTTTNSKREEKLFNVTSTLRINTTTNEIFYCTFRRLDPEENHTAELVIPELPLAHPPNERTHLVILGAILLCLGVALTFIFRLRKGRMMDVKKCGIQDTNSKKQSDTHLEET", "test": "FACS; MDA-MB-231 cells; FIG. 24E"}, "[2]": {"biological_target": "T1, human PD-L1 on CHO-K1 cells", "test": "FACS; MDA-MB-231 cells; FIG. 24D"}, "[3]": {"biological_target": "T1, human PD-L1 on CHO-K1 cells", "test": "FACS; MDA-MB-231 cells; FIG. 24C"}, "[4]": {"biological_target": "T2, human 4-1BB on CHO-K1 cells (human, UniProt Q07011 24-255)", "test": "FACS; FIG. 11D"}, "[5]": {"biological_target": "T2, human 4-1BB on CHO-K1 cells", "test": "FACS; FIG. 11M"}, "[6]": {"biological_target": "T2, human 4-1BB on CHO-K1 cells", "test": "FACS"}, "[7]": {"biological_target": "T2, human 4-1BB on CHO-K1 cells", "test": "FACS blocking of 4-1BBL; FIG. 14B"}, "[8]": {"biological_target": "T2, human 4-1BB on CHO-K1 cells", "test": "FACS; FIG. 11L"}, "[9]": {"biological_target": "T2, human 4-1BB on CHO-K1 cells", "test": "FACS; FIG. 11G"}, "[10]": {"biological_target": "T2, human 4-1BB on CHO-K1 cells", "test": "FACS blocking of 4-1BBL; FIG. 14A"}, "[11]": {"biological_target": "T2, human 4-1BB on CHO-K1 cells", "test": "FACS blocking of 4-1BBL; FIG. 14D"}, "[12]": {"biological_target": "T2, human 4-1BB on CHO-K1 cells", "test": "FACS; FIG. 11K"}, "[13]": {"biological_target": "T2, human 4-1BB on CHO-K1 cells", "test": "FACS blocking of 4-1BBL; FIG. 14C"}, "[14]": {"biological_target": "T2, human 4-1BB on CHO-K1 cells", "test": "FACS; FIG. 11F"}, "[15]": {"biological_target": "T2, human 4-1BB on CHO-K1 cells", "test": "FACS; FIG. 11B"}, "[16]": {"biological_target": "T2, human 4-1BB on CHO-K1 cells", "test": "FACS; FIG. 11C"}, "[17]": {"biological_target": "T2, human 4-1BB on CHO-K1 cells", "test": "FACS; FIG. 11E"}, "[18]": {"biological_target": "T3, cynomolgus monkey 4-1BB on CHO-K1 cells (cynomolgus monkey)", "T3 chain": "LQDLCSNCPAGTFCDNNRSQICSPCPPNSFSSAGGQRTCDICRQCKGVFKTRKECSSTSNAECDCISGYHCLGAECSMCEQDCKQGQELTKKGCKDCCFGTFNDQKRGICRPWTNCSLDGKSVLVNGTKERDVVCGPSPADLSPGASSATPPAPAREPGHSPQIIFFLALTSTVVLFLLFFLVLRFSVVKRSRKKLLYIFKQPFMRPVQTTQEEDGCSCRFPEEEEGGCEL", "test": "FACS; FIG. 21A"}, "[19]": {"biological_target": "T3, cynomolgus monkey 4-1BB on CHO-K1 cells", "test": "FACS; FIG. 12D"}, "[20]": {"biological_target": "T3, cynomolgus monkey 4-1BB on CHO-K1 cells", "test": "FACS; FIG. 12F"}, "[21]": {"biological_target": "T3, cynomolgus monkey 4-1BB on CHO-K1 cells", "test": "FACS; FIG. 12J"}, "[22]": {"biological_target": "T3, cynomolgus monkey 4-1BB on CHO-K1 cells", "test": "FACS"}, "[23]": {"biological_target": "T3, cynomolgus monkey 4-1BB on CHO-K1 cells", "test": "FACS; FIG. 12C"}, "[24]": {"biological_target": "T3, cynomolgus monkey 4-1BB on CHO-K1 cells", "test": "FACS; FIG. 12I"}, "[25]": {"biological_target": "T3, cynomolgus monkey 4-1BB on CHO-K1 cells", "test": "FACS; FIG. 12K"}, "[26]": {"biological_target": "T3, cynomolgus monkey 4-1BB on CHO-K1 cells", "test": "FACS; FIG. 12B"}, "[27]": {"biological_target": "T3, cynomolgus monkey 4-1BB on CHO-K1 cells", "test": "FACS; FIG. 21B"}, "[28]": {"biological_target": "T3, cynomolgus monkey 4-1BB on CHO-K1 cells", "test": "FACS; FIG. 12E"}, "[29]": {"biological_target": "T3, cynomolgus monkey 4-1BB on CHO-K1 cells", "test": "FACS"}, "[30]": {"biological_target": "T3, cynomolgus monkey 4-1BB on CHO-K1 cells", "test": "FACS; FIG. 12H"}, "[31]": {"biological_target": "T3, cynomolgus monkey 4-1BB on CHO-K1 cells", "test": "FACS; FIG. 12L"}, "[32]": {"biological_target": "T3, cynomolgus monkey 4-1BB on CHO-K1 cells", "test": "FACS; FIG. 12A"}},
  "data": [
    {"binder": "B1", "values": [
      {"measurement": "EC50", "setting": "[1]", "result": 0.233, "unit": "nM"},
      {"measurement": "EC50", "setting": "[2]", "result": 0.233, "unit": "nM"},
      {"measurement": "EC50", "setting": "[3]", "result": 0.11, "unit": "nM"}
    ]},
    {"binder": "B2", "values": [
      {"measurement": "EC50", "setting": "[4]", "result": 0.222, "unit": "nM"},
      {"measurement": "EC50", "setting": "[5]", "result": 0.55, "unit": "nM"},
      {"measurement": "EC50", "setting": "[6]", "result": 0.222, "unit": "nM"},
      {"measurement": "IC50", "setting": "[7]", "result": 1.5, "unit": "nM"},
      {"measurement": "EC50", "setting": "[8]", "result": 0.565, "unit": "nM"},
      {"measurement": "EC50", "setting": "[9]", "result": 0.222, "unit": "nM"},
      {"measurement": "IC50", "setting": "[10]", "result": "~2.53", "unit": "nM"},
      {"measurement": "IC50", "setting": "[11]", "result": 2.37, "unit": "nM"},
      {"measurement": "EC50", "setting": "[12]", "result": 0.583, "unit": "nM"},
      {"measurement": "IC50", "setting": "[13]", "result": 2.41, "unit": "nM"},
      {"measurement": "EC50", "setting": "[14]", "result": 0.222, "unit": "nM"},
      {"measurement": "EC50", "setting": "[15]", "result": 0.222, "unit": "nM"},
      {"measurement": "EC50", "setting": "[16]", "result": 0.222, "unit": "nM"},
      {"measurement": "EC50", "setting": "[17]", "result": 0.222, "unit": "nM"}
    ]},
    {"binder": "B3", "values": [
      {"measurement": "EC50", "setting": "[18]", "result": 1.34, "unit": "nM"},
      {"measurement": "EC50", "setting": "[19]", "result": 3.46, "unit": "nM"},
      {"measurement": "EC50", "setting": "[20]", "result": 3.46, "unit": "nM"},
      {"measurement": "EC50", "setting": "[21]", "result": 0.435, "unit": "nM"},
      {"measurement": "EC50", "setting": "[22]", "result": 0.337, "unit": "nM"},
      {"measurement": "EC50", "setting": "[23]", "result": 3.46, "unit": "nM"},
      {"measurement": "EC50", "setting": "[24]", "result": 0.378, "unit": "nM"},
      {"measurement": "EC50", "setting": "[25]", "result": 0.503, "unit": "nM"},
      {"measurement": "EC50", "setting": "[26]", "result": 3.46, "unit": "nM"},
      {"measurement": "EC50", "setting": "[27]", "result": 0.984, "unit": "nM"},
      {"measurement": "EC50", "setting": "[28]", "result": 3.46, "unit": "nM"},
      {"measurement": "EC50", "setting": "[29]", "result": 0.347, "unit": "nM"},
      {"measurement": "EC50", "setting": "[30]", "result": 0.393, "unit": "nM"},
      {"measurement": "EC50", "setting": "[31]", "result": 0.425, "unit": "nM"},
      {"measurement": "EC50", "setting": "[32]", "result": 3.46, "unit": "nM"}
    ]}
  ]
}
